Laboratory results taken from patent US20240226118A1 (US Dept. of Health and Human Services, published 2024).

Target: T1, ATP1A1 genetically fused to yellow fluorescent protein (YFP) tag (human, UniProt P05023 1-1023)
T1 construct: Stood in lysates of RSV-infected H1299 ATP1A1-YFP cells and was pulled down with YFP-specific antibodies; The other subunits of the Na+,K+-ATPase complex may have been present; also called ATP1A1-YFP; ATPase Na+/K+ transporting subunit alpha 1; not shown: yellow fluorescent protein (YFP) tag
Experiment: co-immunoprecipitation

B1: RSV attachment (G) glycoprotein (other)
chain: MSKNKDQRTAKTLERTWDTLNHLLFISSCLYKLNLKSVAQITLSILAMIISTSLIIAAIIFIASANHKVTPTTAIIQDATSQIKNTTPTYLTQNPQLGISPSNPSEITSQITTILASTTPGVKSTLQSTTVKTKNTTTTQTQPSKPTTKQRQNKPPSKPNNDFHFEVFNFVPCSICSNNPTCWAICKRIPNKKPGKKTTTKPTKKPTLKTTKKDPKPQTTKSKEVPTTKPTEEPTINTTKTNIITTLLTSNTTGNPELTSQMETFHSTSSEGNPSPSQVSTTSEYPSQPSSPPNTPRQ
notes: Viral protein in lysates of RSV-infected cells; also called RSV G
**Q.** Does B1 bind?
**A.** no binding
